To fix the notation:
B1: HDV Ribozyme (parent)
chain: GGCCGGCAUGGUCCCAGCCUCCUCGCUGGCGCCGGCUGGGCAACAUUCCGAGGGGACCGUCCCCUCGGUAAUGGCGAAUGGGACCCA

This series covers variants of B1. Kind of series: self-cleavage, relative activity (ratio to wild type); higher = more cleavage; co-transcriptional.
Take A45G C63A: the self-cleavage worked out at 0.872.

As to U46C U47G, the self-cleavage is 0.703.

As to C44U C61A, the self-cleavage is 0.751.

In the case of C44U C61U, the self-cleavage was 0.716.

With A43U G73A, the self-cleavage amounted to 0.322.

A43U G73C: the self-cleavage was found to be 0.43.

In the case of A43U C63A, the self-cleavage is 0.716.

In the case of A45G U65A, the self-cleavage was found to be 0.767.

Regarding A45G U65G, the self-cleavage is 0.782.

On to A45C U69A, for which the self-cleavage is 0.987.

As to A43U G76A, the self-cleavage turned out to be 0.554.

For C44G U79G, the self-cleavage is 0.196.

In the case of U46C G52C, the self-cleavage is 0.72.

Consider A45G U46A, for which the self-cleavage was determined as 0.806.

Consider A45G U46C, for which the self-cleavage came out at 0.511.

As for A45U U46G, the self-cleavage was 0.787.

As to A45U U46C, the self-cleavage was found to be 0.665.

Turning to A43G G54C, the self-cleavage came out at 0.511.

As for A43G G54U, the self-cleavage came to 0.514.

Turning to A45G A51G, the self-cleavage was 0.612.

With A43G C44G, the self-cleavage is 0.798.

Take A43G C44U: the self-cleavage came out at 0.884.

Regarding A45C G59U, the self-cleavage was 0.507.

On to C44G C61A, for which the self-cleavage came out at 0.724.

Regarding C44G C61U, the self-cleavage is 0.378.

With A45G U69A, the self-cleavage came to 0.895.

Regarding C44U G55U, the self-cleavage is 0.831.

On to U46A G76C, for which the self-cleavage amounted to 0.665.

Take U46C C75U: the self-cleavage amounted to 0.0755.

In the case of U46C C75A, the self-cleavage was 0.0536.

On to U46C C57G, for which the self-cleavage worked out at 1.04.

A43G C49A: the self-cleavage was 0.554.

In the case of U46G G67U, the self-cleavage was 0.302.

Regarding U46A G55C, the self-cleavage came to 0.682.

U46A G55U: the self-cleavage was determined as 0.85.

As to A43U U79C, the self-cleavage came out at 0.127.

Consider A45C C63U, for which the self-cleavage was determined as 0.727.

Regarding A45C C63G, the self-cleavage is 0.427.

Regarding A45C C63A, the self-cleavage was 0.748.

For the variant A43U C84A, the self-cleavage was determined as 0.346.

Take U46C C66A: the self-cleavage stood at 0.849.

A45C G53C: the self-cleavage turned out to be 0.755.

For C44A C58A, the self-cleavage was found to be 1.01.

As for A45G A77U, the self-cleavage was determined as 0.482.

A43U C48G: the self-cleavage was 0.435.

For C44U A56G, the self-cleavage worked out at 0.939.

Take C44U A56C: the self-cleavage was 1.04.

On to A45U G68C, for which the self-cleavage turned out to be 0.706.

Consider U46A G73C, for which the self-cleavage amounted to 0.317.

For U46A G73A, the self-cleavage was 0.554.

Take A45U U65G: the self-cleavage was found to be 0.615.

A45G G54A: the self-cleavage amounted to 0.814.

On to A45U A56C, for which the self-cleavage was found to be 0.806.

Take U46A A71G: the self-cleavage came out at 0.895.

Consider U46C U65C, for which the self-cleavage was determined as 1.2.

Take U46G A71U: the self-cleavage turned out to be 0.731.

Turning to C44U A87G, the self-cleavage came to 0.554.

Regarding A45C G80A, the self-cleavage was 0.187.

In the case of A45C G80U, the self-cleavage is 0.0678.

As for U46C C86G, the self-cleavage amounted to 0.852.

For the variant A43C U46A, the self-cleavage was 0.877.

Consider A43C U46C, for which the self-cleavage was 0.435.

For the variant C44G C58U, the self-cleavage came to 0.751.

With C44G G50C, the self-cleavage is 0.739.

Turning to C44G G50U, the self-cleavage amounted to 0.767.

For A45G A56G, the self-cleavage was 0.997.

As to A43U G81C, the self-cleavage is 0.181.

Consider U46G G52U, for which the self-cleavage was 0.237.

On to C44U C62G, for which the self-cleavage was 0.464.

For the variant A43U G53C, the self-cleavage turned out to be 0.508.

As for A43G A51G, the self-cleavage came out at 0.26.

For A45U G76A, the self-cleavage worked out at 0.578.

With A45U G76C, the self-cleavage was found to be 0.689.

Regarding A43G C58G, the self-cleavage is 0.72.

On to A43G C58A, for which the self-cleavage worked out at 0.629.

As for A45U A78C, the self-cleavage stood at 0.13.

Regarding U46A C57G, the self-cleavage was found to be 0.617.

For the variant A43C G82C, the self-cleavage is 0.

As to U46G C66G, the self-cleavage was 0.633.

Take U46G C66A: the self-cleavage was found to be 0.308.

On to A45G C48A, for which the self-cleavage was found to be 1.27.

Take C44G A83G: the self-cleavage worked out at 0.233.

In the case of C44U U65G, the self-cleavage came out at 0.812.

As for U46G G59A, the self-cleavage is 1.09.

For the variant A45U U69C, the self-cleavage was 0.959.

With A45U U69G, the self-cleavage stood at 0.855.

A45U C62G: the self-cleavage is 0.798.

In the case of U46C A70G, the self-cleavage turned out to be 1.03.

Take U46G G53U: the self-cleavage was 0.262.

As to U46C G59C, the self-cleavage turned out to be 0.965.

As for A43U C57U, the self-cleavage was found to be 0.631.

As for C44G G54A, the self-cleavage was determined as 0.831.

With C44G G54C, the self-cleavage was 0.831.

Take C44G G82U: the self-cleavage was 0.232.

As for C44A C75U, the self-cleavage was found to be 0.218.

Regarding C44A C75A, the self-cleavage was determined as 0.359.

Consider U46A C61A, for which the self-cleavage is 0.8.

Consider C44U U46A, for which the self-cleavage was 0.767.

In the case of U46C G68U, the self-cleavage was found to be 0.719.

U46G C86G: the self-cleavage came out at 1.01.

Turning to A43G G59A, the self-cleavage was 0.811.

Turning to C44A G53C, the self-cleavage is 0.686.

Turning to C44U A78G, the self-cleavage was found to be 0.242.

For U46C C84U, the self-cleavage was 0.485.

As for A43G G81C, the self-cleavage amounted to 0.

Turning to C44G C48G, the self-cleavage was 0.575.

As to C44U G82A, the self-cleavage was 0.363.

Take C44U G82U: the self-cleavage turned out to be 0.282.

Take A45G A71G: the self-cleavage came to 0.831.

Turning to A45G A71C, the self-cleavage was found to be 1.01.

A43U G54A: the self-cleavage came out at 0.487.

For the variant C44A U69G, the self-cleavage turned out to be 0.609.

As for A45G G68A, the self-cleavage was found to be 0.867.

As for A45G G68U, the self-cleavage stood at 0.804.

In the case of U46C A56C, the self-cleavage amounted to 0.609.

With A43U U60A, the self-cleavage was determined as 0.594.

Regarding C44G G80A, the self-cleavage came to 0.223.

Regarding C44A A45C, the self-cleavage stood at 0.692.

On to C44U C75A, for which the self-cleavage is 0.108.

With A45G G81C, the self-cleavage is 0.147.

As to A45G G81U, the self-cleavage was found to be 0.208.

On to A45U G80C, for which the self-cleavage was determined as 0.

For A45G C85G, the self-cleavage turned out to be 0.88.

A45G C85A: the self-cleavage came out at 1.01.

As for A45G U47C, the self-cleavage amounted to 0.787.

For the variant U46G C49A, the self-cleavage worked out at 0.391.

Take C44A G55C: the self-cleavage came out at 0.831.

Turning to C44G C62A, the self-cleavage came to 0.875.

For the variant A43C U69C, the self-cleavage came to 0.582.

A45G G52U: the self-cleavage was determined as 0.731.

Consider A43G C84G, for which the self-cleavage was found to be 0.201.

Turning to A43G C84A, the self-cleavage came to 0.712.

Take A45C C66G: the self-cleavage worked out at 0.587.

Take A43G A83C: the self-cleavage was 0.268.

For A45C C49A, the self-cleavage was found to be 0.72.

Take C44A C84U: the self-cleavage was found to be 0.431.

In the case of C44U U47C, the self-cleavage is 0.54.

As to C44U U47G, the self-cleavage stood at 0.677.

As to U46A G54A, the self-cleavage was found to be 0.763.

For the variant C44U U72A, the self-cleavage turned out to be 0.678.

As to C44U G59U, the self-cleavage was 0.854.

As for C44U G59A, the self-cleavage stood at 0.819.

Turning to C44G U72C, the self-cleavage came out at 0.198.

Regarding A45G C62U, the self-cleavage worked out at 1.03.

A43G G50U: the self-cleavage turned out to be 0.658.

Consider A45U G81U, for which the self-cleavage is 0.277.

With A45U G81C, the self-cleavage is 0.287.

For the variant A45U U72C, the self-cleavage came to 1.02.

Take A43G A77U: the self-cleavage is 0.0504.

Take U46G C62A: the self-cleavage was determined as 0.575.

With A45C C86U, the self-cleavage was 0.779.

As for A45C U65G, the self-cleavage turned out to be 0.745.

Regarding A43G G67C, the self-cleavage was 0.465.

Turning to U46A G80A, the self-cleavage is 0.147.

For U46A G80U, the self-cleavage was found to be 0.176.

Take A45U G82C: the self-cleavage came out at 0.0898.

On to U46A G74U, for which the self-cleavage was found to be 0.305.

For the variant A45C U79A, the self-cleavage was 0.208.

For U46A C58G, the self-cleavage was found to be 0.712.

In the case of C44A G76A, the self-cleavage turned out to be 0.873.

Regarding A45U A70G, the self-cleavage came to 0.808.

Consider C44G C75A, for which the self-cleavage came to 0.406.

On to C44U A77C, for which the self-cleavage stood at 0.277.

As for A43G U60C, the self-cleavage came to 0.415.

Turning to A43G G55C, the self-cleavage worked out at 0.743.

On to A43G G55U, for which the self-cleavage was 0.378.

As for U46G A77C, the self-cleavage was 0.0875.

The record behind these values is the RNAGym collection of RNA variant scans (doi:10.7554/elife.80360).
